The supplement of paper PMC5998384

What was measured:
HeLa Kyoto [1] = assay: solubility in G1/S (NP-40 vs SDS abundance) (log2 ratio); higher = more soluble; settings: cell cycle stage: G1/S
HeLa Kyoto [2] = assay: melting temperature (median over replicates), in situ; higher = more thermally stable
HeLa Kyoto [3] = assay: solubility change mitosis vs G1/S (difference of NP-40 vs SDS log2 ratios) (log2 ratio difference); higher = more soluble in mitosis
HeLa Kyoto [4] = assay: thermal stability score vs G1/S (z-score of summed log2 fold changes over temperatures); higher = more thermally stable than in G1/S
[5] = cell cycle stage: early G1 (4.5 h after nocodazole release)
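Wherever melting temperature (median over replicates), in situ is given: HeLa Kyoto cells synchronized by double thymidine or nocodazole block, proteins quantified by TMT10plex mass spectrometry, three independent biological replicates.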
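Wherever solubility change mitosis vs G1/S (difference of NP-40 vs SDS log2 ratios) is given: synchronized HeLa Kyoto cells (double thymidine block for G1/S, nocodazole release for mitosis), protein amounts in NP-40 versus SDS lysates quantified by mass spectrometry, three biological replicates.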
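Wherever solubility in G1/S (NP-40 vs SDS abundance) is given: HeLa Kyoto cells arrested at G1/S by double thymidine block, proteins quantified by TMT10plex mass spectrometry in mild NP-40 versus SDS extracts, three biological replicates.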
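Wherever thermal stability score vs G1/S (z-score of summed log2 fold changes over temperatures) is given: synchronized HeLa Kyoto cells, proteins quantified by TMT10plex mass spectrometry, three biological replicates, mitosis taken 0.5 h after nocodazole release, G1/S directly after double thymidine block.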

Chain of PTBP3 (chain, as listed by the source): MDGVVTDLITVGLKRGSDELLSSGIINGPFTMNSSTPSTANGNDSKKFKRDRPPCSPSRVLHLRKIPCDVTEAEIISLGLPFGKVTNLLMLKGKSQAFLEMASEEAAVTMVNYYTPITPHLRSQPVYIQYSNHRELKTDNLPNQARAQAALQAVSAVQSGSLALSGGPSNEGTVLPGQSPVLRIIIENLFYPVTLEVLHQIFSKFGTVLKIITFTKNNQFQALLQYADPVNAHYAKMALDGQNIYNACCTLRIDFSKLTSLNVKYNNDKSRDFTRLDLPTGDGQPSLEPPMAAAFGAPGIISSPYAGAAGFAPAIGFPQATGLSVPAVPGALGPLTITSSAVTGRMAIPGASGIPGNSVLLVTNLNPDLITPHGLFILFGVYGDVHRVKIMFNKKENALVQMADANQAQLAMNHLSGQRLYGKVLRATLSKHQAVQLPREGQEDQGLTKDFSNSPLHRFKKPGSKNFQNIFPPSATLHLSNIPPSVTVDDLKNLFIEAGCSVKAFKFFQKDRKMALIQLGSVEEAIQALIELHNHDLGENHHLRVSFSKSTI

| Substance | solubility in G1/S (log2) (HeLa Kyoto [1]) | melting temperature (HeLa Kyoto [2]; cell cycle stage: G1/S) | melting temperature (HeLa Kyoto [2]; cell cycle stage: mitosis) | solubility change mitosis (log2) (HeLa Kyoto [3]) | thermal stability score (HeLa Kyoto [4]; [5]) | thermal stability score (HeLa Kyoto [4]; cell cycle stage: mitosis) |
| --- | --- | --- | --- | --- | --- | --- |
| MIPVTELRYFADTQPAYRILKPWWDVFTDYISIVMLMIAVFGGTLQVTQDKMICLPCKWVTKDSCNDSFRGWAAPGPEPTYPNSTILPTPDTGPTGIKYDLDRHQYNYVDAVCYENRLHWFAKYFPYLVLLHTLIFLACSNFWFKFPRTSSKLEHFVSILLKCFDSPWTTRALSETVVEESDPKPAFSKMNGSMDKKSSTVSEDVEATVPMLQRTKSRIEQGIVDRSETGVLDKKEGEQAKALFEKVKKFRTHVEEGDIVYRLYMRQTIIKVIKFILIICYTVYYVHNIKFDVDCTVDIESLTGYRTYRCAHPLATLFKILASFYISLVIFYGLICMYTLWWMLRRSLKKYSFESIREESSYSDIPDVKNDFAFMLHLIDQYDPLYSKRFAVFLSEVSENKLRQLNLNNEWTLDKLRQRLTKNAQDKLELHLFMLSGIPDTVFDLVELEVLKLELIPDVTIPPSIAQLTGLKELWLYHTAAKIEAPALAFLRENLRALHIKFTDIKEIPLWIYSLKTLEELHLTGNLSAENNRYIVIDGLRELKRLKVLRLKSNLSKLPQVVTDVGVHLQKLSINNEGTKLIVLNSLKKMANLTELELIRCDLERIPHSIFSLHNLQEIDLKDNNLKTIEEIISFQHLHRLTCLKLWYNHIAYIPIQIGNLTNLERLYLNRNKIEKIPTQLFYCRKLRYLDLSHNNLTFLPADIGLLQNLQNLAITANRIETLPPELFQCRKLRALHLGNNVLQSLPSRVGELTNLTQIELRGNRLECLPVELGECPLLKRSGLVVEEDLFNTLPPEVKERLWRADKEQA [LRRC8A] | -0.294 | 54 °C | 52.9 °C | 0.00706 | -0.642 | -0.308 |
| MYH9 | 0.1 | 53.4 °C | 52.1 °C | -0.117 | -1.58 | 0.618 |
| TATDN1 | 0.194 | 56.1 °C | 56.4 °C | -0.119 | -1.11 | -2.1 |
| MQTPEVPAERSPRRRSISGTSTSEKPNSMDTANTSPFKVPGFFSKRLKGSIKRTKSQSKLDRNTSFRLPSLRSTDDRSRGLPKLKESRSHESLLSPCSTVECLDLGRGEPVSVKPLHSSILGQDFCFEVTYLSGSKCFSCNSASERDKWMENLRRTVQPNKDNCRRAENVLRLWIIEAKDLAPKKKYFCELCLDDTLFARTTSKTKADNIFWGEHFEFFSLPPLHSITVHIYKDVEKKKKKDKNNYVGLVNIPTASVTGRQFVEKWYPVSTPTPNKGKTGGPSIRIKSRFQTITILPMEQYKEFAEFVTSNYTMLCSVLEPVISVRNKEELACALVHILQSTGRAKDFLTDLVMSEVDRCGEHDVLIFRENTIATKSIEEYLKLVGQQYLHDALGEFIKALYESDENCEVDPSKCSSSELIDHQSNLKMCCELAFCKIINSYCVFPRELKEVFASWKQQCLNRGKQDISERLISASLFLRFLCPAIMSPSLFNLMQEYPDDRTSRTLTLIAKVIQNLANFAKFGNKEEYMAFMNDFLEHEWGGMKRFLLEISNPDTISNTPGFDGYIDLGRELSVLHSLLWEVVSQLDKGENSFLQATVAKLGPLPRVLADITKSLTNPTPIQQQLRRFTEHNSSPNVSGSLSSGLQKIFEDPTDSDLHKLKSPSQDNTDSYFRGKTLLLVQQASSQSMTYSEKDERESSLPNGRSVSLMDLQDTHAAQVEHASVMLDVPIRLTGSQLSITQVASIKQLRETQSTPQSAPQVRRPLHPALNQPGGLQPLSFQNPVYHLNNPIPAMPKASIDSSLENLSTASSRSQSNSEDFKLSGPSNSSMEDFTKRSTQSEDFSRRHTVPDRHIPLALPRQNSTGQAQIRKVDQGGLGARAKAPPSLPHSASLRSTGSMSVVSAALVAEPVQNGSRSRQQSSSSRESPVPKVRAIQRQQTQQVQSPVDSATMSPVERTAAWVLNNGQYEEDVEETEQNLDEAKHAEKYEQEITKLKERLRVSSRRLEEYERRLLVQEQQMQKLLLEYKARLEDSEERLRRQQEEKDSQMKSIISRLMAVEEELKKDHAEMQAVIDAKQKIIDAQEKRIVSLDSANTRLMSALTQVKERYSMQVRNGISPTNPTKLSITENGEFKNSSC [RASAL2] | 0.0337 | 49 °C | 49.4 °C | -0.0989 | 1.04 | 2.25 |
| MEVNPPKQEHLLALKVMRLTKPTLFTNIPVTCEEKDLPGDLFNQLMRDDPSTVNGAEVLMLGEMLTLPQNFGNIFLGETFSSYISVHNDSNQVVKDILVKADLQTSSQRLNLSASNAAVAELKPDCCIDDVIHHEVKEIGTHILVCAVSYTTQAGEKMYFRKFFKFQVLKPLDVKTKFYNAESDLSSVTDEVFLEAQIQNMTTSPMFMEKVSLEPSIMYNVTELNSVSQAGECVSTFGSRAYLQPMDTRQYLYCLKPKNEFAEKAGIIKGVTVIGKLDIVWKTNLGERGRLQTSQLQRMAPGYGDVRLSLEAIPDTVNLEEPFHITCKITNCSERTMDLVLEMCNTNSIHWCGISGRQLGKLHPSSSLCLALTLLSSVQGLQSISGLRLTDTFLKRTYEYDDIAQVCVVSSAIKVES [TRAPPC13] | 0.0799 | 50 °C | 49.9 °C | -0.173 | -0.207 | 0.0312 |
| PTBP3 | -0.19 | 46.6 °C | 48 °C | 0.15 | 0.736 | 1.3 |
| MSPRRTLPRPLSLCLSLCLCLCLAAALGSAQSGSCRDKKNCKVVFSQQELRKRLTPLQYHVTQEKGTESAFEGEYTHHKDPGIYKCVVCGTPLFKSETKFDSGSGWPSFHDVINSEAITFTDDFSYGMHRVETSCSQCGAHLGHIFDDGPRPTGKRYCINSAALSFTPADSSGTAEGGSGVASPAQADKAEL [MSRB3] | 0.116 | 55 °C | 53.6 °C | 0.0421 | -0.168 | -0.886 |
| MEPSSLELPADTVQRIAAELKCHPTDERVALHLDEEDKLRHFRECFYIPKIQDLPPVDLSLVNKDENAIYFLGNSLGLQPKMVKTYLEEELDKWAKIAAYGHEVGKRPWITGDESIVGLMKDIVGANEKEIALMNALTVNLHLLMLSFFKPTPKRYKILLEAKAFPSDHYAIESQLQLHGLNIEESMRMIKPREGEETLRIEDILEVIEKEGDSIAVILFSGVHFYTGQHFNIPAITKAGQAKGCYVGFDLAHAVGNVELYLHDWGVDFACWCSYKYLNAGAGGIAGAFIHEKHAHTIKPALVGWFGHELSTRFKMDNKLQLIPGVCGFRISNPPILLVCSLHASLEIFKQATMKALRKKSVLLTGYLEYLIKHNYGKDKAATKKPVVNIITPSHVEERGCQLTITFSVPNKDVFQELEKRGVVCDKRNPNGIRVAPVPLYNSFHDVYKFTNLLTSILDSAETKN [KYNU] | 0.121 | 61.5 °C | 62.3 °C | -0.229 | -0.273 | -0.415 |
